According to the supplement of paper PMC9732359:
± gives the uncertainty stated by the source.

Assay: protein stability index of a GFP-peptide fusion (yeast GPS) (PSI 1-4); higher = more stable; sorted into four equal gates, so the index is relative within each strain
Procedure, shortened: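 For each peptide, the protein stability index sums the read frequency in every gate after multiplying it by the gate number. Read frequencies came from plasmids that were PCR-amplified from each gate and Illumina-sequenced, with reads assigned to strains by barcodes. The gates were four equal bins of GFP/Cherry fluorescence ratio applied to mid-log yeast in leucine-free medium carrying a pooled library of tiled 17-residue yeast protein peptides fused downstream of GFP on a Cherry-expressing plasmid.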

| Sequence | protein stability index (doa10∆) | protein stability index (pdr5∆) | protein stability index (san1∆) | protein stability index (ubr1∆) |
| --- | --- | --- | --- | --- |
| SKVASSLVIIILVKRYS [ECM29] | 1.85 ± 0.054 | 1.44 ± 0.042 | 1.71 ± 0.094 | 2.12 ± 0.051 |
| GGDGRDYKGAKLNVVGW [RRI1] | 3.15 ± 0.15 | 3.15 ± 0.15 | 2.56 ± 0.12 | 3.23 ± 0.084 |
| GCGNTQPTIRKDGLKLV [RPO21] | 2.42 ± 0.084 | 2.11 ± 0.056 | 2.3 ± 0.17 | 2.41 ± 0.045 |
| LLGARHYTPAVDLWSVG [SSN3] | 1.29 ± 0.19 | 1.15 ± 0.19 |  |  |
| RMSIKLLRLASKSTSMK [POP1] | 2.49 ± 0.043 | 2.6 ± 0.047 | 2.48 ± 0.053 | 2.56 ± 0.04 |
| QSLANIQYVTYLLTQQQ [SOH1] | 2.23 ± 0.048 | 2.4 ± 0.045 | 2.19 ± 0.047 | 2.41 ± 0.033 |
| NSFTKGNVFSPIDNNII [SNU114] | 2.98 ± 0.093 | 2.92 ± 0.074 | 2.83 ± 0.081 | 2.95 ± 0.058 |
| PSYVHFKVQIIELLSYL [YML103C/NUP188] | 1.41 ± 0.063 | 2.27 ± 0.065 | 1.8 ± 0.072 | 2.04 ± 0.05 |
| ATLSKLKKKYQIILDRF [SIR3] | 2.32 ± 0.065 | 1.95 ± 0.073 | 1.75 ± 0.12 | 1.71 ± 0.061 |
| TSSRQTVFLPMVGLVDP [RPT5] | 2.55 ± 0.038 | 2.62 ± 0.044 | 2.39 ± 0.044 | 2.16 ± 0.033 |
| PVMADLNGGLQFVPELK [FAS2] | 1.78 ± 0.069 | 2.19 ± 0.076 | 2.07 ± 0.077 | 2.01 ± 0.056 |
| IQLPASLAATYSMISLQ [ARP9] | 1.73 ± 0.088 | 2.01 ± 0.074 | 2.29 ± 0.1 | 2.19 ± 0.053 |
| LLSDVVSTSSGAAANNN [YJL041W/NSP1] | 3.24 ± 0.077 | 3.06 ± 0.11 | 3.32 ± 0.047 | 3.52 ± 0.11 |
| QLLQRIPNIPPNINTWQ [GAL11] | 2.55 ± 0.048 | 2.72 ± 0.049 | 1.96 ± 0.059 | 2.62 ± 0.044 |
| EKGPQVCAKLFGNIQKV [RPO21] | 2.63 ± 0.08 | 2.29 ± 0.057 | 2.29 ± 0.079 | 2.09 ± 0.06 |
| IQRGRILPTDGSAEFNV [RPB7] | 2.8 ± 0.14 | 3.05 ± 0.086 | 3.03 ± 0.081 | 2.79 ± 0.075 |
| MVVQNSPVSSVHTANFS [MED2] | 2.12 ± 0.1 | 2.67 ± 0.075 | 2.01 ± 0.099 | 2.75 ± 0.054 |
| ANGTFMDFGVDPSMDPE [RPN10] | 2.87 ± 0.12 | 3.05 ± 0.091 | 2.65 ± 0.12 | 2.87 ± 0.085 |
| SPFRPLEKTSRILNFFD [YMR153W/NUP53] | 2.85 ± 0.13 | 3.22 ± 0.093 | 2.72 ± 0.087 | 2.83 ± 0.07 |
| DTLKENATEVQKESDAK [ITC1] | 2.87 ± 0.11 | 2.94 ± 0.12 | 2.85 ± 0.086 | 3.16 ± 0.26 |
| NLYTPKAEMPPEHLRKI [PRP8] | 2.53 ± 0.072 | 2.38 ± 0.062 | 2.78 ± 0.073 | 2.12 ± 0.053 |
| GAMGLLSSAGAKSTVET [RIP1] | 2.01 ± 0.12 | 2.46 ± 0.11 | 2.14 ± 0.18 | 2.35 ± 0.09 |
| IIQNAQRDAVTLFCCLL [RPO21] | 2.88 ± 0.053 | 2.54 ± 0.055 | 2.53 ± 0.051 | 2.44 ± 0.046 |
| VTGGKKALVLFVPVPAL [RPS7B] | 1.58 ± 0.061 | 2.03 ± 0.1 | 2.14 ± 0.11 | 1.52 ± 0.054 |
| NIKHKHTSIRETLENGE [SMC2] | 1.46 ± 0.12 | 1.74 ± 0.21 | 1.54 ± 0.2 | 1.68 ± 0.24 |
| GELEQAQAWINLGEYYA [RPN7] | 3.58 ± 0.28 | 3.03 ± 0.098 | 3.33 ± 0.1 | 3.26 ± 0.057 |
| HVSHEAMREVNDEKRVK [YIL149C/MLP2] | 2.74 ± 0.097 | 2.89 ± 0.15 |  | 3.03 ± 0.12 |

| Sequence | protein stability index (doa10∆) | protein stability index (pdr5∆) | protein stability index (san1∆) | protein stability index (ubr1∆) |
| --- | --- | --- | --- | --- |
| IVTPVEKAVEEKPAVKS [RPT3] | 2.6 ± 0.1 | 3.07 ± 0.064 | 3.17 ± 0.051 | 3.13 ± 0.086 |
| AELELVDSLDPFSEGVT [SMC4] | 2.84 ± 0.072 | 2.64 ± 0.061 | 2.75 ± 0.12 | 3.11 ± 0.054 |
| PAFSFGTKSNEKKDSGS [YJL041W/NSP1] | 3.17 ± 0.075 | 3.46 ± 0.075 | 3.44 ± 0.044 | 3.25 ± 0.065 |
| SSDGAYTEQFQHYKNNS [SSN2] | 2.99 ± 0.068 | 3.03 ± 0.056 | 3.02 ± 0.066 | 3.06 ± 0.05 |
| LMASVILDSLPSVIHSS [YDL116W/NUP84] | 1.76 ± 0.042 | 1.38 ± 0.039 | 1.34 ± 0.067 | 1.48 ± 0.034 |
| MPPKEDWEKYKAPLEDD [RPT1] | 3.21 ± 0.12 | 3.29 ± 0.21 | 3.38 ± 0.069 | 3.27 ± 0.19 |
| VLVSSVTEANIIKLVEG [RPS12] | 2.52 ± 0.12 | 2.58 ± 0.067 | 2.67 ± 0.083 | 2.71 ± 0.072 |
| SKKRKLNSLTNLLSKRN [SNM1] | 2.87 ± 0.071 | 2.99 ± 0.059 | 2.84 ± 0.055 | 2.81 ± 0.057 |
| STSFKNPRRLEIKDGRS [YMR153W/NUP53] | 3.06 ± 0.084 | 3.06 ± 0.09 | 2.83 ± 0.085 | 3.16 ± 0.041 |
| QNSDASTLEPTLRKELE [YIL149C/MLP2] | 2.59 ± 0.09 | 1.68 ± 0.091 | 2.55 ± 0.069 | 3.12 ± 0.077 |
| FNTQQGIKKHSLWRRTV [YDL116W/NUP84] | 2.6 ± 0.049 | 2.76 ± 0.043 | 2.77 ± 0.048 | 2.49 ± 0.031 |
| INDNNTRPYILERARDV [YCG1] | 3.6 ± 0.23 |  |  |  |
| TPSLPIAPPVAPHDSEA [SNF5] | 2.6 ± 0.07 | 2.48 ± 0.074 | 3.23 ± 0.064 | 2.52 ± 0.066 |
| IRPDGRLPHQFRPIEIF [RRP42] | 1.84 ± 0.087 | 1.94 ± 0.084 | 1.35 ± 0.12 | 2.16 ± 0.073 |
| EHGLHAPAYAWSHNGPF [CYT1] | 2.83 ± 0.11 | 3 ± 0.073 | 2.52 ± 0.087 | 2.87 ± 0.054 |
| SVRLQVTKILPHLIIQN [IRR1] | 1.65 ± 0.091 | 1.7 ± 0.064 | 1.72 ± 0.094 | 1.7 ± 0.06 |
| DPRIAPLRGALATYGLT [FAS2] | 2.37 ± 0.1 | 2.51 ± 0.16 | 2.38 ± 0.13 | 2.04 ± 0.056 |
| EVHDLIGFITSGTYHLN [POP1] | 2.69 ± 0.15 | 2.64 ± 0.14 | 2.11 ± 0.13 | 2.48 ± 0.11 |
| KLFNKWSFEEVEVKDAS [RPS5] | 2.17 ± 0.087 | 1.77 ± 0.072 | 1.4 ± 0.15 | 1.67 ± 0.06 |
| SRIVEIFALCIYNSTDS [YML103C/NUP188] | 1.2 ± 0.093 | 1.21 ± 0.086 | 1.52 ± 0.11 | 1.2 ± 0.057 |
| QIPHFNNKILEKCKEIN [BRR2] | 1.28 ± 0.11 | 2.23 ± 0.12 | 1.88 ± 0.22 | 2.02 ± 0.14 |
| DQCVGQVGLNFELSFTG [YMR129W/POM152] | 2.94 ± 0.061 | 3.01 ± 0.077 | 3.06 ± 0.046 | 2.97 ± 0.043 |
| DGENDKKEATKPAFSFG [YLR335W/NUP2] | 2.59 ± 0.048 | 2.21 ± 0.043 | 2.79 ± 0.041 | 2.9 ± 0.033 |
| ELSKEEKERLESLTKEI [SMC3] | 3.01 ± 0.13 | 3.13 ± 0.15 | 3 ± 0.059 | 3.17 ± 0.077 |
| PWDTSLEVGRRFSPDED [MCD1] | 3.25 ± 0.14 | 3.44 ± 0.19 | 3.28 ± 0.15 | 3.41 ± 0.17 |
| DGIGGLTEQIRELREVI [RPT4] |  | 3.65 ± 0.28 |  |  |
| KFLILNENPINKIMTNQ [NUT1] | 2.9 ± 0.11 | 2.75 ± 0.1 | 2.67 ± 0.07 | 2.99 ± 0.089 |
